The results in this text go back to patent publication US8563685B2, “Fatty acid formulations and oral delivery of proteins and peptides, and uses thereof” (priority 2004, dated 2013).

Data set [1] relates to chymotrypsin. Kind of data set: In vitro enzyme (chymotrypsin) resistance, IN105 and Zn IN105 complexes. In kind it is in vitro ADME. To be noted: 37° C., 0.6 mg/ml protein. The method, then:
(§1) This sample serves as T=0. […] The half life was calculated using the equation: t1/2:=−0.693/slope.

The test system of data set [2] is chymotrypsin. In words: In vitro enzyme (chymotrypsin) resistance, HIM2 and Zn HIM2 complexes. In kind it is in vitro ADME. The conditions noted are these: 37° C., 0.3 mg/mL protein. The method, then: as §1

Take “IN105 (R-type zinc complex): R-type Zn complex of IN105, 1.85% w/w zinc, 2.37% w/w phenol (as reaction 9.6.1)”: the T half in data set [1] was found to be 55.3 min.

Take “HIM2 (R-type zinc complex): R-type Zn complex of HIM2, 1.1% w/w zinc, 0.1 to 0.25% w/w phenol”: the T half in data set [2] is 19 to 21 min.
